Biological target: cdc42, P60953
Sequence (P60953 1-188): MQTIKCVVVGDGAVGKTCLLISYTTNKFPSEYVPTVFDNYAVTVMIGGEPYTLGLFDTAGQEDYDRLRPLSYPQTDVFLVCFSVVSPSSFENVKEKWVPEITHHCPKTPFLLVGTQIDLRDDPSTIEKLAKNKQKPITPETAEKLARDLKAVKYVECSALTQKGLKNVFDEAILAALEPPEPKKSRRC

B1: FYVE, RhoGEF and PH domain-containing 5 (FGD5) (protein)
chain: MFRGPKPPIAPKPRLTAPNEWRASVYLNDSLNKCSNGRLPCVDRGLDEGPRSIPKCSESETDEDYIVVPRVPLREDEPKDEGSVGNKALVSPESSAEEEEEREEGGEACGLEGTGAGEDSVAPAAPGAGALSREGEEGTDLALEDEGEGCADEPGTLEQVSRSEEEEKLVQPHRECSLEDSGPWAGEGVFQSDLLLPHIHGEDQEPPDTPGEAEEDDEEGCASTDPAGADEGSGPDRPTEDMGQDAEDTSEEPPEKEELAGVQEAETATDCPEVLEEGCEEATGVTGGEQVDLSEPPDHEKKTNQEVAAATLEDHAQDESAEESCQIVPFENDCMEDFVTSLTGSPYEFFPTESTSFCSESCSPLSESAKGLESEQAPKLGLRAEENPMVGALCGQCGSLQGGAAEGPAAPDVVVVLEEEALDDALANPYVMGVGLPGQAAPGEGGQAASDALGGYGSKEELNCEAEGGLVPADRKNTSTRVRPHSGKVAGYVPETVPEETGPEAGSSAPGIGGAAEEVGKTLLSLEGKPLEASRALPAKPRAFTLYPRSFSVEGREIPVSVYQEPEGSGLDDHRIKRKEDNLSLSCVIGSSGSFSQRNHLPSSGTSTPSSMVDIPPPFDLACITKKPITKSSPSLLIESDSPDKYKKKKSSFKRFLALTFKKKTENKLHVDVNVSSSRSSSESSYHGPSRILEVDRRSLSNSPQLKSRTGKLRASESPSSLIFYRDGKRKGVPFSRTVSRVESFEDRSRPPFLPLPLTKPRSISFPSADTSDYENIPAMNSDYENIQIPPRRPARAGAFTKLFEDQSRALSTANENDGYVDMSSFNAFESKQQSADQDAESAYTEPYKVCPISSAAPKEDLTSDEEQRSSEEEDSASRDPSVTHKVEGQSRALVIAQELLSSEKAYVEMLQHLNLDFHGAVMRALDDMDHEGRDTLAREELRQGLSELPAIHDLHQGILEELEERLSNWESQQKVADVFLAREQGFDHHATHILQFDRYLGLLSENCLHSPRLAAAVREFEQSVQGGSQTAKHRLLRVVQRLFQYQVLLTDYLNNLCPDSAEYDNTQGALSLISKVTDRANDSMEQGENLQKLVHIEHSVRGQGDLLQPGREFLKEGTLMKVTGKNRRPRHLFLMNDVLLYTYPQKDGKYRLKNTLAVANMKVSRPVMEKVPYALKIETSESCLMLSASSCAERDEWYGCLSRALPEDYKAQALAAFHHSVEIRERLGVSLGERPPTLVPVTHVMMCMNCGCDFSLTLRRHHCHACGKIVCRNCSRNKYPLKYLKDRMAKVCDGCFGELKKRGRAVPGLMRERPVSMSFPLSSPRFSGSAFSSVFQSINPSTFKKQKKVPSALTEVAASGEGSAISGYLSRCKRGKRHWKKLWFVIKGKVLYTYMASEDKVALESMPLLGFTIAPEKEEGSSEVGPIFHLYHKKTLFYSFKAEDTNSAQRWIEAMEDASVL
GTP-cdc42 level in a GEF-activity assay (G-lisa, chemo-luminescent measurement of GTP-bound small G-proteins in lysates of Sham Ad or Ad-FGD5 transfected HUVECs): cdc42-FGD5 binding led to specific activation of cdc42 in a GEF-activity assay

Reference: patent US20120277144
